Data from publication doi:10.64898/2025.12.30.697096 (bioRxiv, 2025).
No end group written: not given here. *: point of attachment. MTSL = nitroxide spin label, CC1(C)C=C(CS*)C(C)(C)N1[O]

B1: Glu3-tagged Bax α9 peptide (Bax residues Gly166 to Gly192) (peptide, UniProt Q07812 166-192, looked up)
chain: GTPTWQTVTIFVAGVLTASLTIWKKMG

Legend:
cross-linking = biological target: the molecule itself; assay: cross-linking
[1] = biological target: B1; assay: NMR paramagnetic relaxation enhancement

| Binder | stoichiometry N (cross-linking) | binding result [1] |
| --- | --- | --- |
| B1 | 2 | – |
| GTPTWQTVTIFVAGVLTASLTIC(MTSL)KKMG (peptide, UniProt Q07812 166-192, looked up) [Bax (α9) W188C with MTSL spin probe] | – | binds |
| GTPTWQC(MTSL)VTIFVAGVLTASLTIWKKMG (peptide, UniProt Q07812 166-192, looked up) [Bax (α9) T172C with MTSL spin probe] | – | binds |
| GTPTWQTVTIFVAC(MTSL)VLTASLTIWKKMG (peptide, UniProt Q07812 166-192, looked up) [Bax (α9) G179C with MTSL spin probe] | – | binds |
